In PMC9357155 (Cancer Discovery, 2022):
Residue numbers refer to the chain shown, from its start. Numbers in names are those of the source.

T1: Full-length His-tagged MALT1 (human, UniProt Q9UDY8 1-824)
T1 sequence: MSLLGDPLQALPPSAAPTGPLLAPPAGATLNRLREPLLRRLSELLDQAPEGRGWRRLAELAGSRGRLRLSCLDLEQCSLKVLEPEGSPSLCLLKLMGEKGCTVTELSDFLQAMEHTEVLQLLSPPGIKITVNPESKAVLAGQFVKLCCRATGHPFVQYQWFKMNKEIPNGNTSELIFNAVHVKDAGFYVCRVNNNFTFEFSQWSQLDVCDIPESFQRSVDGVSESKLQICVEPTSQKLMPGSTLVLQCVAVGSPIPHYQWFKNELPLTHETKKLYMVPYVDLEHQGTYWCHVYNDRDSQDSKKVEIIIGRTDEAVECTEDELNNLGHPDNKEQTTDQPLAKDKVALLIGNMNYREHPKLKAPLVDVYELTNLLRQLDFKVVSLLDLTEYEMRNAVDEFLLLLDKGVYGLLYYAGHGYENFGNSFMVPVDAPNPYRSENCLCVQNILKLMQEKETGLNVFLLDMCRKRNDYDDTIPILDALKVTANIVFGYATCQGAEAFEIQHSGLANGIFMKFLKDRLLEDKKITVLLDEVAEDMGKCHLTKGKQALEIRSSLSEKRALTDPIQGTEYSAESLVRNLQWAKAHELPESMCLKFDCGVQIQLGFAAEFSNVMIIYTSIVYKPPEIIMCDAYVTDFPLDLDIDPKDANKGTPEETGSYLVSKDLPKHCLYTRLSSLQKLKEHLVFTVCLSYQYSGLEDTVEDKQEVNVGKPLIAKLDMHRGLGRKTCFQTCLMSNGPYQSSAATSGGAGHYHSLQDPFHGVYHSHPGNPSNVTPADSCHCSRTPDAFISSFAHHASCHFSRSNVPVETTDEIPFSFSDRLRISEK

B1: BCL10 E140X truncation mutant, after removal of the MBP tag by 3C protease (domain or fragment)
chain: MEPTAPSLTEEDLTEVKKDALENLRVYLCEKIIAERHFDHLRAKKILSREDTEEISCRTSSRKRAGKLLDYLQENPKGLDTLVESIRREKTQNFLIQKITDEVLKLRNIKLEHLKGLKCSSCEPFPDGATNNLSRSNSD
modifications: Alexa488 (C5-maleimide) on cysteine residues in the confocal and quenching assays; not labelled for EM
B2: MBP-fused BCL10 E140X (domain or fragment)
chain: B1 chain
B3: BCL10 wild type, full length, after removal of the MBP tag by 3C protease (natural protein)
chain: MEPTAPSLTEEDLTEVKKDALENLRVYLCEKIIAERHFDHLRAKKILSREDTEEISCRTSSRKRAGKLLDYLQENPKGLDTLVESIRREKTQNFLIQKITDEVLKLRNIKLEHLKGLKCSSCEPFPDGATNNLSRSNSDESNFSEKLRASTVMYHPEGESSTTPFFSTNSSLNLPVLEVGRTENTIFSSTTLPRPGDPGAPPLPPDLQLEEEGTCANSSEMFLPLRSRTVSRQ
modifications: Alexa488 (C5-maleimide) on cysteine residues in the confocal and quenching assays; not labelled for EM
B4: BCL10 R58Q, full length, after removal of the MBP tag by 3C protease (natural protein)
chain: B3 chain with R58Q
modifications: Alexa488 (C5-maleimide) on cysteine residues in the confocal and quenching assays; not labelled for EM

Key:
[1] = molecular target: T1, Full-length His-tagged MALT1; experiment: negative-stain EM
[2] = molecular target: the molecule itself; experiment: SEC
[3] = molecular target: T1, Full-length His-tagged MALT1; experiment: fluorescence quenching polymerisation assay

Binder | binding result [1] | other results
B1 | binds | –
B2 | – | binding result [2]: binds
B3 | binds | –
B4 | – | binding result [3]: binds
